Molecular target: ZAP-S (short isoform of zinc-finger antiviral protein) (human, UniProt Q7Z2W4-2 1-699)
Test: MST; 5 mM Mg2+
Details: protein: recombinant, tags: N-terminal 6xHis-SUMO, label: 3' pCp-Cy5

Chain of ZAP-S (short isoform of zinc-finger antiviral protein) (Q7Z2W4 other isoform, or with tags, fused parts or gaps): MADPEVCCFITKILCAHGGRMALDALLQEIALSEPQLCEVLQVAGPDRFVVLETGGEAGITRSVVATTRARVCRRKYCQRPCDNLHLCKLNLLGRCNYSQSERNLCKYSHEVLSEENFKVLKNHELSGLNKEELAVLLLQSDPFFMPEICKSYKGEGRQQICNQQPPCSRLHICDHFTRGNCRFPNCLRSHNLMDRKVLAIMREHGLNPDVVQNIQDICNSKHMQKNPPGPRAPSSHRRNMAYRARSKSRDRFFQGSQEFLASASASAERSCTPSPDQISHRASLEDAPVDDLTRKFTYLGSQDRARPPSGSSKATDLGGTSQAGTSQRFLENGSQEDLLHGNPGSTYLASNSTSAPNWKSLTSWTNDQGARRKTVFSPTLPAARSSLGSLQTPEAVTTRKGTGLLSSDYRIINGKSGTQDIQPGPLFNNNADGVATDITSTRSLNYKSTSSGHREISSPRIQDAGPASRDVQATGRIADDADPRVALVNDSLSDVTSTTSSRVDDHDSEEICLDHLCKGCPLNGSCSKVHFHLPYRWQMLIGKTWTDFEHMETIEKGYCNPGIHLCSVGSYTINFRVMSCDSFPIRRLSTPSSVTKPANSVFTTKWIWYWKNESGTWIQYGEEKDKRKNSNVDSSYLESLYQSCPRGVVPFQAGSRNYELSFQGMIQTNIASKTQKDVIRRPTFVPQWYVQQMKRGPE

B1: dSL3 mutant (structured_RNA)
RNA: UCGUUUUUAAACGGGUUUGCGGUGUAAGUGCAGCCCGUCUUACACCGUAUACAGGGCU
Shorter pseudoknot (predicted)
  Kd: 175 ± 64 nM

B2: Compensatory mutant (structured_RNA)
RNA: UCGUUUUUAAACGGGUUUGGGGUGUAAGUGCAGCCCGUCUUACACCCUGGGGCACAGGCACUAGUACUGAUGUCCUAUACAGGGCU
Pseudoknot (predicted)
  Kd: 128 ± 29 nM

B3: dSL2 mutant (structured_RNA)
RNA: UCGUUUUUAAACGGGUUUGCGGUGUAAGUGCAGCCCGUCUUACACCGUGCGGCACAGGCACUAGUACUGAUGUCGU
Two consecutive stem-loops
  Kd: 672 ± 164 nM

B4: dSL2+3 mutant (SL1 only) (structured_RNA)
RNA: UCGUUUUUAAACGGGUUUGCGGUGUAAGUGCAGCCCGUCUUACACCGU
hairpin
  binding result: no binding

Reference: publication PMC8664833
